Laboratory results as given in the supplement of paper PMC5998384.

Experiments:
HeLa Kyoto [1] = assay: solubility in G1/S (NP-40 vs SDS abundance) (log2 ratio); higher = more soluble; details: cell cycle stage: G1/S
HeLa Kyoto [2] = assay: thermal stability score vs G1/S (z-score of summed log2 fold changes over temperatures); higher = more thermally stable than in G1/S
HeLa Kyoto [3] = assay: melting temperature (median over replicates), in situ; higher = more thermally stable
HeLa Kyoto [4] = assay: solubility change mitosis vs G1/S (difference of NP-40 vs SDS log2 ratios) (log2 ratio difference); higher = more soluble in mitosis
[5] = cell cycle stage: early G1 (4.5 h after nocodazole release)
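Wherever melting temperature (median over replicates), in situ is given: HeLa Kyoto cells synchronized by double thymidine or nocodazole block, proteins quantified by TMT10plex mass spectrometry, three independent biological replicates.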
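Wherever solubility change mitosis vs G1/S (difference of NP-40 vs SDS log2 ratios) is given: synchronized HeLa Kyoto cells (double thymidine block for G1/S, nocodazole release for mitosis), protein amounts in NP-40 versus SDS lysates quantified by mass spectrometry, three biological replicates.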
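Wherever solubility in G1/S (NP-40 vs SDS abundance) is given: HeLa Kyoto cells arrested at G1/S by double thymidine block, proteins quantified by TMT10plex mass spectrometry in mild NP-40 versus SDS extracts, three biological replicates.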
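Wherever thermal stability score vs G1/S (z-score of summed log2 fold changes over temperatures) is given: synchronized HeLa Kyoto cells, proteins quantified by TMT10plex mass spectrometry, three biological replicates, mitosis taken 0.5 h after nocodazole release, G1/S directly after double thymidine block.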

Row | Sequence | solubility in G1/S (log2) (HeLa Kyoto [1]) | thermal stability score (HeLa Kyoto [2]; [5]) | thermal stability score (HeLa Kyoto [2]; cell cycle stage: mitosis) | melting temperature (HeLa Kyoto [3]; cell cycle stage: G1/S) | melting temperature (HeLa Kyoto [3]; cell cycle stage: mitosis) | solubility change mitosis (log2) (HeLa Kyoto [4])
1 | MGHRFLRGLLTLLLPPPPLYTRHRMLGPESVPPPKRSRSKLMAPPRIGTHNGTFHCDEALACALLRLLPEYRDAEIVRTRDPEKLASCDIVVDVGGEYDPRRHRYDHHQRSFTETMSSLSPGKPWQTKLSSAGLIYLHFGHKLLAQLLGTSEEDSMVGTLYDKMYENFVEEVDAVDNGISQWAEGEPRYALTTTLSARVARLNPTWNHPDQDTEAGFKRAMDLVQEEFLQRLDFYQHSWLPARALVEEALAQRFQVDPSGEIVELAKGACPWKEHLYHLESGLSPPVAIFFVIYTDQAGQWRIQCVPKEPHSFQSRLPLPEPWRGLRDEALDQVSGIPGCIFVHASGFIGGHRTREGALSMARATLAQRSYLPQIS [C12ORF10] | 0.418 | -0.294 | -1.46 | 53.8 °C | 53.9 °C | -0.074
2 | MCGNTMSVPLLTDAATVSGAERETAAVIFLHGLGDTGHSWADALSTIRLPHVKYICPHAPRIPVTLNMKMVMPSWFDLMGLSPDAPEDEAGIKKAAENIKALIEHEMKNGIPANRIVLGGFSQGGALSLYTALTCPHPLAGIVALSCWLPLHRAFPQAANGSAKDLAILQCHGELDPMVPVRFGALTAEKLRSVVTPARVQFKTYPGVMHSSCPQEMAAVKEFLEKLLPPV [LYPLA2] | 0.543 | -1.02 | 0.00875 | 53.3 °C | 53 °C | 0.185
3 | MAVVAAAAGWLLRLRAAGAEGHWRRLPGAGLARGFLHPAATVEDAAQRRQVAHFTFQPDPEPREYGQTQKMNLFQSVTSALDNSLAKDPTAVIFGEDVAFGGVFRCTVGLRDKYGKDRVFNTPLCEQGIVGFGIGIAVTGATAIAEIQFADYIFPAFDQIVNEAAKYRYRSGDLFNCGSLTIRSPWGCVGHGALYHSQSPEAFFAHCPGIKVVIPRSPFQAKGLLLSCIEDKNPCIFFEPKILYRAAAEEVPIEPYNIPLSQAEVIQEGSDVTLVAWGTQVHVIREVASMAKEKLGVSCEVIDLRTIIPWDVDTICKSVIKTGRLLISHEAPLTGGFASEISSTVQEECFLNLEAPISRVCGYDTPFPHIFEPFYIPDKWKCYDALRKMINY [BCKDHB] | -0.09 | -0.96 | -1.83 | 52.6 °C | 52 °C | -0.179
4 | MPAVLGFEGSANKIGVGVVRDGKVLANPRRTYVTPPGTGFLPGDTARHHRAVILDLLQEALTESGLTSQDIDCIAYTKGPGMGAPLVSVAVVARTVAQLWNKPLVGVNHCIGHIEMGRLITGATSPTVLYVSGGNTQVIAYSEHRYRIFGETIDIAVGNCLDRFARVLKISNDPSPGYNIEQMAKRGKKLVELPYTVKGMDVSFSGILSFIEDVAHRMLATGECTPEDLCFSLQETVFAMLVEITERAMAHCGSQEALIVGGVGCNVRLQEMMATMCQERGARLFATDERFCIDNGAMIAQAGWEMFRAGHRTPLSDSGVTQRYRTDEVEVTWRD [OSGEP] | 0.0103 | 0.00035 | -1.39 | 55.5 °C | 55.4 °C | -0.136
5 | MGNCHTVGPNEALVVSGGCCGSDYKQYVFGGWAWAWWCISDTQRISLEIMTLQPRCEDVETAEGVALTVTGVAQVKIMTEKELLAVACEQFLGKNVQDIKNVVLQTLEGHLRSILGTLTVEQIYQDRDQFAKLVREVAAPDVGRMGIEILSFTIKDVYDKVDYLSSLGKTQTAVVQRDADIGVAEAERDAGIREAECKKEMLDVKFMADTKIADSKRAFELQKSAFSEEVNIKTAEAQLAYELQGAREQQKIRQEEIEIEVVQRKKQIAVEAQEILRTDKELIATVRRPAEAEAHRIQQIAEGEKVKQVLLAQAEAEKIRKIGEAEAAVIEAMGKAEAERMKLKAEAYQKYGDAAKMALVLEALPQIAAKIAAPLTKVDEIVVLSGDNSKVTSEVNRLLAELPASVHALTGVDLSKIPLIKKATGVQV [FLOT2] | -1.04 | -2.8 | -0.0606 | 56.8 °C | 55.8 °C | 0.153
6 | MSNKEGSGGFRKRKHDNFPHNQRREGKDVNSSSPVMLAFKSFQQELDARHDKYERLVKLSRDITVESKRTIFLLHRITSAPDMEDILTESEIKLDGVRQKIFQVAQELSGEDMHQFHRAITTGLQEYVEAVSFQHFIKTRSLISMDEINKQLIFTTEDNGKENKTPSSDAQDKQFGTWRLRVTPVDYLLGVADLTGELMRMCINSVGNGDIDTPFEVSQFLRQVYDGFSFIGNTGPYEVSKKLYTLKQSLAKVENACYALKVRGSEIPKHMLADVFSVKTEMIDQEEGIS [TSNAX] | 0.379 | -0.435 | -1.45 | 54.7 °C | 56.3 °C | -0.0987
7 | MDEEYDVIVLGTGLTECILSGIMSVNGKKVLHMDRNPYYGGESSSITPLEELYKRFQLLEGPPESMGRGRDWNVDLIPKFLMANGQLVKMLLYTEVTRYLDFKVVEGSFVYKGGKIYKVPSTETEALASNLMGMFEKRRFRKFLVFVANFDENDPKTFEGVDPQTTSMRDVYRKFDLGQDVIDFTGHALALYRTDDYLDQPCLETVNRIKLYSESLARYGKSPYLYPLYGLGELPQGFARLSAIYGGTYMLNKPVDDIIMENGKVVGVKSEGEVARCKQLICDPSYIPDRVRKAGQVIRIICILSHPIKNTNDANSCQIIIPQNQVNRKSDIYVCMISYAHNVAAQGKYIAIASTTVETTDPEKEVEPALELLEPIDQKFVAISDLYEPIDDGCESQVFCSCSYDATTHFETTCNDIKDIYKRMAGTAFDFENMKRKQNDVFGEAEQ [GDI1] | 0.0264 | -0.651 | -1.41 | 54.2 °C | 53.8 °C | -0.152
8 | MEASRRFPEAEALSPEQAAHYLRYVKEAKEATKNGDLEEAFKLFNLAKDIFPNEKVLSRIQKIQEALEELAEQGDDEFTDVCNSGLLLYRELHNQLFEHQKEGIAFLYSLYRDGRKGGILADDMGLGKTVQIIAFLSGMFDASLVNHVLLIMPTNLINTWVKEFIKWTPGMRVKTFHGPSKDERTRNLNRIQQRNGVIITTYQMLINNWQQLSSFRGQEFVWDYVILDEAHKIKTSSTKSAICARAIPASNRLLLTGTPIQNNLQELWSLFDFACQGSLLGTLKTFKMEYENPITRAREKDATPGEKALGFKISENLMAIIKPYFLRRTKEDVQKKKSSNPEARLNEKNPDVDAICEMPSLSRKNDLIIWIRLVPLQEEIYRKFVSLDHIKELLMETRSPLAELGVLKKLCDHPRLLSARACCLLNLGTFSAQDGNEGEDSPDVDHIDQVTDDTLMEESGKMIFLMDLLKRLRDEGHQTLVFSQSRQILNIIERLLKNRHFKTLRIDGTVTHLLEREKRINLFQQNKDYSVFLLTTQVGGVGLTLTAATRVVIFDPSWNPATDAQAVDRVYRIGQKENVVVYRLITCGTVEEKIYRRQVFKDSLIRQTTGEKKNPFRYFSKQELRELFTIEDLQNSVTQLQLQSLHAAQRKSDIKLDEHIAYLQSLGIAGISDHDLMYTCDLSVKEELDVVEESHYIQQRVQKAQFLVEFESQNKEFLMEQQRTRNEGAWLREPVFPSSTKKKCPKLNKPQPQPSPLLSTHHTQEEDISSKMASVVIDDLPKEGEKQDLSSIKVNVTTLQDGKGTGSADSIATLPKGFGSVEELCTNSSLGMEKSFATKNEAVQKETLQEGPKQEALQEDPLESFNYVLSKSTKADIGPNLDQLKDDEILRHCNPWPIISITNESQNAESNVSIIEIADDLSASHSALQDAQASEAKLEEEPSASSPQYACDFNLFLEDSADNRQNFSSQSLEHVEKENSLCGSAPNSRAGFVHSKTCLSWEFSEKDDEPEEVVVKAKIRSKARRIVSDGEDEDDSFKDTSSINPFNTSLFQFSSVKQFDASTPKNDISPPGRFFSSQIPSSVNKSMNSRRSLASRRSLINMVLDHVEDMEERLDDSSEAKGPEDYPEEGVEESSGEASKYTEEDPSGETLSSENKSSWLMTSKPSALAQETSLGAPEPLSGEQLVGSPQDKAAEATNDYETLVKRGKELKECGKIQEALNCLVKALDIKSADPEVMLLTLSLYKQLNNN [ERCC6L] | -0.0349 | 1.6 | 2.53 | 49.5 °C | 49.1 °C | -0.161
9 | MVVFVGRRLPALLGLFKKKGSAKAENDKHLSVGPGQGPGSAVDEHQDNVFFPSGRPPHLEELHTQAQEGLRSLQHQEKQKLNKGGWDHGDTQSIQSSRTGPDEDNISFCSQTTSYVAESSTAEDALSIRSEMIQRKGSTFRPHDSFPKSGKSGRRRRERRSTVLGLPQHVQKELGLRNEREAPGTPRAPGARDAVRIPTVDGRPRGTSGMGARVSLQALEAEAEAGAETEAMLQRHIDRVYRDDTFVGRSTGTRAPPLTRPMSLAVPGLTGGAGPAEPLSPAMSISPQATYLSKLIPHAVLPPTVDVVALGRCSLRTLSRCSLHSASPASVRSLGRFSSVSSPQPRSRHPSSSSDTWSHSQSSDTIVSDGSTLSSKGGSEGQPESSTASNSVVPPPQGGSGRGSPSGGSTAEASDTLSIRSSGQLSGRSVSLRKLKRPPPPPRRTHSLHQRGLAVPDGPLGLPPKPERKQQPQLPRPPTTGGSEGAGAAPCPPNPANSWVPGLSPGGSRRPPRSPERTLSPSSGYSSQSGTPTLPPKGLAGPPASPGKAQPPKPERVTSLRSPGASVSSSLTSLCSSSSDPAPSDRSGPQILTPLGDRFVIPPHPKVPAPFSPPPSKPRSPNPAAPALAAPAVVPGPVSTTDASPQSPPTPQTTLTPLQESPVISKDQSPPPSPPPSYHPPPPPTKKPEVVVEAPSASETAEEPLQDPNWPPPPPPAPEEQDLSMADFPPPEEAFFSVASPEPAGPSGSPELVSSPAASSSSATALQIQPPGSPDPPPAPPAPAPASSAPGHVAKLPQKEPVGCSKGGGPPREDVGAPLVTPSLLQMVRLRSVGAPGGAPTPALGPSAPQKPLRRALSGRASPVPAPSSGLHAAVRLKACSLAASEGLSSAQPNGPPEAEPRPPQSPASTASFIFSKGSRKLQLERPVSPETQADLQRNLVAELRSISEQRPPQAPKKSPKAPPPVARKPSVGVPPPASPSYPRAEPLTAPPTNGLPHTQDRTKRELAENGGVLQLVGPEEKMGLPGSDSQKELA [KIAA1522] | 0.188 | 0.117 | 0.588 | 52 °C | 52.4 °C | -0.199
10 | MAHCVTLVQLSISCDHLIDKDIGSKSDPLCVLLQDVGGGSWAELGRTERVRNCSSPEFSKTLQLEYRFETVQKLRFGIYDIDNKTPELRDDDFLGGAECSLGQIVSSQVLTLPLMLKPGKPAGRGTITVSAQELKDNRVVTMEVEARNLDKKDFLGKSDPFLEFFRQGDGKWHLVYRSEVIKNNLNPTWKRFSVPVQHFCGGNPSTPIQVQCSDYDSDGSHDLIGTFHTSLAQLQAVPAEFECIHPEKQQKKKSYKNSGTIRVKICRVETEYSFLDYVMGGCQINFTVGVDFTGSNGDPSSPDSLHYLSPTGVNEYLMALWSVGSVVQDYDSDKLFPAFGFGAQVPPDWQVSHEFALNFNPSNPYCAGIQGIVDAYRQALPQVRLYGPTNFAPIINHVARFAAQAAHQGTASQYFMLLLLTDGAVTDVEATREAVVRASNLPMSVIIVGVGGADFEAMEQLDADGGPLHTRSGQAAARDIVQFVPYRRFQNAPREALAQTVLAEVPTQLVSYFRAQGWAPLKPLPPSAKDPAQAPQA [CPNE1] | 0.146 | 0.0462 | 0.0377 | 52 °C | 51.9 °C | -0.134
